From paper PMC3660092

Target: YFP-IP3R type 1 (UniProt P11881)
Experiment: FRET or BRET

Sequence of UniProt P11881 (P11881 whole entry): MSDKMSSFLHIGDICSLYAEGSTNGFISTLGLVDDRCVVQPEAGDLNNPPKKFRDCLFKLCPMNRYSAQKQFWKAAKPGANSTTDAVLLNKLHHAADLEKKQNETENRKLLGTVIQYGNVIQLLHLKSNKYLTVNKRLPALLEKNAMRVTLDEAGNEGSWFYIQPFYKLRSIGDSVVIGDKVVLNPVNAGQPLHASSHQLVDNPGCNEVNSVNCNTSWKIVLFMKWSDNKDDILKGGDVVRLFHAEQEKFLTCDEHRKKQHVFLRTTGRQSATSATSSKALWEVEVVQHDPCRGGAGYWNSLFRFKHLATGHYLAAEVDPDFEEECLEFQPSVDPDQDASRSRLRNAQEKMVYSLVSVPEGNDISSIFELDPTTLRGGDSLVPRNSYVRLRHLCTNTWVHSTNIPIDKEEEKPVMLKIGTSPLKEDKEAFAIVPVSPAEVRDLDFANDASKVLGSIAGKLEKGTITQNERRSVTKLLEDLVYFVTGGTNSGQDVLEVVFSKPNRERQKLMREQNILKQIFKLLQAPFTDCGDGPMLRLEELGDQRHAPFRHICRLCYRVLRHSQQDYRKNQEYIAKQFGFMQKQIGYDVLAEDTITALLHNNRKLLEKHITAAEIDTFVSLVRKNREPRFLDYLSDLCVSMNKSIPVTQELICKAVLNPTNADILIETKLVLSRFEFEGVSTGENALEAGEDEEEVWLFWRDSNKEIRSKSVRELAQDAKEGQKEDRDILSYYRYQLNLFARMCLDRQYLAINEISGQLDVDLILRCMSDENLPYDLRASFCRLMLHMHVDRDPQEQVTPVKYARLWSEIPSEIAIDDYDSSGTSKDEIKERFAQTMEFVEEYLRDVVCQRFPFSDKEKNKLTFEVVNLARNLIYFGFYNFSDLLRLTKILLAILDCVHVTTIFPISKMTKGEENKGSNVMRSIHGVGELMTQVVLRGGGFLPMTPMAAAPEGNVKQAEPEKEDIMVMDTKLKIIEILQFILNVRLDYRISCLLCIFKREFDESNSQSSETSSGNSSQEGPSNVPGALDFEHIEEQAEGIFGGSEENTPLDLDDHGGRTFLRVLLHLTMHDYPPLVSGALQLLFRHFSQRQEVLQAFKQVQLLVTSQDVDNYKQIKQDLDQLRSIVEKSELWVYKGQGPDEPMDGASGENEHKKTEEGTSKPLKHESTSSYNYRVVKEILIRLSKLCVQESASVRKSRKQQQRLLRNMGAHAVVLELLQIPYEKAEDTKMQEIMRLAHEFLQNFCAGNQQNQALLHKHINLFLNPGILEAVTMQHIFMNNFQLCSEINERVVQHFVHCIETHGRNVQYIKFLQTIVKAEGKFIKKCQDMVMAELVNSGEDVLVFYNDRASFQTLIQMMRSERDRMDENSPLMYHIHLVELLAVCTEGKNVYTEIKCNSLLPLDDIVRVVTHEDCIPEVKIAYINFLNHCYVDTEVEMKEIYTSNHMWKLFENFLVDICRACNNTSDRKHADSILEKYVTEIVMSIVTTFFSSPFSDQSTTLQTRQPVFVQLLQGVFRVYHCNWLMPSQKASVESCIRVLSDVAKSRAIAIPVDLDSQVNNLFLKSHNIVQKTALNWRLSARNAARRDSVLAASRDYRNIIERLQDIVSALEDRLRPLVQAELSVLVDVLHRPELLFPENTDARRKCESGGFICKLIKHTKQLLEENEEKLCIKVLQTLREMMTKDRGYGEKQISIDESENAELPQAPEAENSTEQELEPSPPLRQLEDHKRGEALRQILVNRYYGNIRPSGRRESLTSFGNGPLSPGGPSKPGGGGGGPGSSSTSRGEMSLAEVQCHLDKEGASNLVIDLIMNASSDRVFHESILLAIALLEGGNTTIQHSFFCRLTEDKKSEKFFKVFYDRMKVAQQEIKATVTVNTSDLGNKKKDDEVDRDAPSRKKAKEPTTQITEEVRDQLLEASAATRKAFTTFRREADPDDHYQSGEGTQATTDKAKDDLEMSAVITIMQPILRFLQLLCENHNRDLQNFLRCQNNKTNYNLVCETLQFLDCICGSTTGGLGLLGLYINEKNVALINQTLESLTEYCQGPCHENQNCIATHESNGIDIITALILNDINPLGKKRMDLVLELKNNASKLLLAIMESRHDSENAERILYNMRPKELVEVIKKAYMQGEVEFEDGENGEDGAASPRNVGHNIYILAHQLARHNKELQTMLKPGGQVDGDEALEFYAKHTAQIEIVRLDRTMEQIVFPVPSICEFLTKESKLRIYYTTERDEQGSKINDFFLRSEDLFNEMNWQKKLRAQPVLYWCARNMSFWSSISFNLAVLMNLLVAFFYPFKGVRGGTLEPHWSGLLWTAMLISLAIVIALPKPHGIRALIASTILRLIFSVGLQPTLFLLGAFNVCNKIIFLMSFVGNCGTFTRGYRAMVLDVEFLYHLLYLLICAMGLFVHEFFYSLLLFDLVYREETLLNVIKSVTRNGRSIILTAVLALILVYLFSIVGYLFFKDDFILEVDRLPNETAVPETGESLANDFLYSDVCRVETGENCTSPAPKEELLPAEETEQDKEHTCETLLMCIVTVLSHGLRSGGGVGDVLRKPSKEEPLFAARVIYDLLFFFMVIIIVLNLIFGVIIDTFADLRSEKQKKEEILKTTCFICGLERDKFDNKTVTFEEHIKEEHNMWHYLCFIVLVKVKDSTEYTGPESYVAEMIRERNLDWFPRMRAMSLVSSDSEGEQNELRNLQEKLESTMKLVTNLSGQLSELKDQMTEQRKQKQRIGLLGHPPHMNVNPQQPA

increase of the CFP signal after YFP bleaching (FRET efficiency): 28%
Substance: CFP-Bcl-2 (from UniProt P10415 1-239) (natural protein)
